Test results as given in paper PMC7369618 (Redox Biology, 2020).

Molecular target: EGFP-PKM2 (UniProt P14618 1-531)
Test: MST

Sequence of EGFP-PKM2 (P14618 whole entry): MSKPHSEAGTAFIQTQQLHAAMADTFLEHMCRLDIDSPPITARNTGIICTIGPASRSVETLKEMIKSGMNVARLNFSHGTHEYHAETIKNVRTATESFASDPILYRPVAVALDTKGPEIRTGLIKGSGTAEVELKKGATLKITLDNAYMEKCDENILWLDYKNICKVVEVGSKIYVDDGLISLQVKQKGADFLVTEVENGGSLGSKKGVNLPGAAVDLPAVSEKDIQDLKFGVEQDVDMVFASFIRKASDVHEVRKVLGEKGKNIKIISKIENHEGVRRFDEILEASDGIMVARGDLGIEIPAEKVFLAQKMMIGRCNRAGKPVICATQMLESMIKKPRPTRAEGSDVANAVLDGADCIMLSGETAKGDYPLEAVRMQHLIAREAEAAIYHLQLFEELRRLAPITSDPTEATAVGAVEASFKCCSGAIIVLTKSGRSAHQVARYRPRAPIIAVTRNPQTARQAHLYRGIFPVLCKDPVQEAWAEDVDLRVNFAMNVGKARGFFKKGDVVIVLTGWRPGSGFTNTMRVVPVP

Kd: 0.001 pM
B1: Annexin A5 (sc-4252, Santa Cruz Biotechnology) (natural protein)
chain: MAQVLRGTVTDFPGFDERADAETLRKAMKGLGTDEESILTLLTSRSNAQRQEISAAFKTLFGRDLLDDLKSELTGKFEKLIVALMKPSRLYDAYELKHALKGAGTNEKVLTEIIASRTPEELRAIKQVYEEEYGSSLEDDVVGDTSGYYQRMLVVLLQANRDPDAGIDEAQVEQDAQALFQAGELKWGTDEEKFITIFGTRSVSHLRKVFDKYMTISGFQIEETIDRETSGNLEQLLLAVVKSIRSIPAYLAETLYYAMKGAGTDDHTLIRVMVSRSEIDLFNIRKEFRKNFATSLYSMIKGDTSGDYKKALLLLCGEDD
